Data on 1 molecule can be found in US11175293 (UNIVERSITY OF UTAH RESEARCH FOUNDATION, dated 2021).

The experiment concerns the target T1, NanoSpike.
T1 construct: also called IH4vs2-Spike
Put plainly: flow cytometry on human whole blood, detected with FITC-conjugated anti-Strep-tag antibodies. On the technique in general: Flow cytometry measures light scatter and fluorescence of single cells or particles in a stream.

B1: Glycophorin A (GYPA) on the surface of human red blood cells (other)
chain: LSTTEVAMHTSTSSSVTKSYISSQTNDTHKRDTYAATPRAHEVSEISVRTVYPPEEETGERVQLAHHFSEPEITLIIFGVMAGVIGTILLISYGIRRLIKKSPSDVKPLPSPDTDVPLSSVEIENPETSDQ
notes: whole, on cells; also called GPA; RBC
For the molecule B1, the binding result was “binds”.
